Paper PMC8560993

How the values were obtained:
[1] = target: Regulated thin filaments (TRITC-actin with skeletal tropomyosin and troponin) (rabbit | not stated) (UniProt P68135)
F-actin (rabbit) [2] = target: F-actin (rabbit) (UniProt P68135)
F-actin (rabbit) [3] = target: F-actin (rabbit) (UniProt P68135); remark: listed apart in the source
F-actin (rabbit) [4] = target: F-actin (rabbit) (UniProt P68135); remark: listed apart in the source
F-actin (rabbit) [5] = target: F-actin (rabbit) (UniProt P68135); remark: listed apart in the source
F-actin (rabbit) [6] = target: F-actin (rabbit) (UniProt P68135); remark: listed apart in the source

Skeletal muscle myosin (from UniProt Q28641 1-1938) (complex)
pseudo KM for pCa50: half the N at which the pCa50 of thin filament sliding velocity saturates, in vitro motility assay, 50 mM KCl [1]: 24
pseudo KM for pCa50: half the N at which the pCa50 of thin filament sliding velocity saturates, in vitro motility assay, 100 mM KCl [1]: 26
KM for F(N): N at half-maximal V(N) against a mechanical load of 0.5 μg/ml α-actinin on the motility surface (F-actin (rabbit) [2]): 16
KM for F(N): N at half-maximal V(N) against a mechanical load of 1.0 μg/ml α-actinin on the motility surface (F-actin (rabbit) [2]): 38
KM for V: N (myosin per μm actin; N equals μg/ml myosin incubated) at half-maximal actin sliding velocity V(N), in vitro motility assay, 50 mM KCl, 30 °C (F-actin (rabbit) [2]): 16
KM for V: N at half-maximal actin sliding velocity V(N), in vitro motility assay, 100 mM KCl, 30 °C (F-actin (rabbit) [2]): 17
KM for v: N at half-maximal actin-activated ATPase activity v(N), measured in a motility flow cell, 50 mM KCl, 30 °C (F-actin (rabbit) [2]): 46
KM for v: N at half-maximal actin-activated ATPase activity v(N), measured in a motility flow cell, 100 mM KCl, 30 °C (F-actin (rabbit) [2]): 23
inhibition of actin-activated ATPase activity (N = 5, 1.0 μM actin; v from 0.59 to 0.26 μM Pi/min) by the load of 1.0 μg/ml α-actinin on the motility surface (F-actin (rabbit) [3]): 55%
actin activation of the ATPase activity of surface-bound myosin at low N in a motility flow cell (0.15 μM actin, Figure 3) (F-actin (rabbit) [4]): 4 fold
KM: N at half-maximal V(N), in vitro motility assay, control without (-)-blebbistatin (Figure 2D) (F-actin (rabbit) [5]): 16.1
KM: N at half-maximal V(N), in vitro motility assay, with 10 μM (-)-blebbistatin (Figure 2D) (F-actin (rabbit) [5]): 13.3
KM: N at half-maximal V(N), in vitro motility assay, with 50 μM (-)-blebbistatin (Figure 2D) (F-actin (rabbit) [5]): 6.4
KM: N at half-maximal V(N), in vitro motility assay, control without α-actinin (Figure 5A) (F-actin (rabbit) [6]): 19
